Reference: the supplement of paper PMC9170038

System: MS2 coat protein
Test: apparent KD of MS2 coat protein; designed switch direction (-1 OFF switch, 1 ON switch): -1; higher = weaker reporter binding
Procedure, shortened: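 On Illumina chips, designed RNA switches with common flanks were made by stalled E. coli RNA polymerase. Titrations with SNAP-549-labelled MS2 coat protein, doubling from 0.7 or 1.5 nM to 3 µM, were done with no input, with 200 uM small-molecule ligand, or with an oligonucleotide input. Apparent KD is the median per design over clusters, from curve fits of normalised cluster fluorescence.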

[1] = Eterna round: R95, input ligand: FMN 200 uM
[2] = Eterna round: R95, input ligand: microRNA oligo, concentration not stated
[3] = Eterna round: R95, input ligand: none
[4] = input ligand: microRNA oligo, concentration not stated

Sequence	apparent KD of MS2 coat protein (input ligand: FMN 200 uM) [nM]	apparent KD of MS2 coat protein (input ligand: none) [nM]	apparent KD of MS2 coat protein [1] [nM]	apparent KD of MS2 coat protein [2] [nM]	apparent KD of MS2 coat protein [3] [nM]	apparent KD of MS2 coat protein [4] [nM]
UCCUCACAUGAGGAUCACCCAUGUCAGGAUAUAAGAAACGCGGAAGGCAGCCGCAAAAUUAGAAGGGACAUUAA [EX1 A.25] (Eterna round: R97, puzzle: Exclusion 1)	39.7	20.6	–	–	–	–
UCCUCACAUGAGGAUCACCCAUGUCAGGAUAUACAAGAAAAUAACCGGAAAGACCGGAGUAGAAGGGACAUAAG [Beleonrala] (puzzle: Exclusion 1)	–	–	31.6	16.1	16.1	–
UCCUCACAUGAGGAUCACCCAUGUCAGGAUAUGUACCCGAUCAAGUCAGAGAUCGGAAGCAGAAGGGACUGCGG [Larebeti] (puzzle: Exclusion 1)	–	–	26.5	70.7	59.2	–
UCCUCACCUUAGGAUAUCUUGACGGGACUCUCAGGAGAAGGAAGGACAUGAGGAUCACCCAUGUUCAAAACAAC [EX6 B.18] (Eterna round: R97, puzzle: Exclusion 6)	50.2	23.2	–	–	–	–
UCCUGACAUGAGGAUCACCCAUGUUAGGAUAUAACAUUUGACGCGACAGUGUGGAGUGUUAGAAGGGAUGUGGG [-29.5, -26.8 kcal, A 27%] (Eterna round: R97, puzzle: Exclusion 1)	20.5	17.4	–	–	–	–
UCCUGCUGGCGAGGAUAUCCUGUGCGGUUCCGGCUCGUGUCUGUUACAUGAGGAUCACCCAUGUGGGAGAAGGUGUCUGUGGCC [Design 98] (Eterna round: R96, puzzle: Exclusion NG 2)	18.6	20.5	–	–	–	14.1
UCCUGGCGAGGAUAUACAAUGUUAUUCGCGUGUAGUUGGAAACAUGAGGAUCACCCAUGUAGAAGGUGCUACUG [JR_Ex2_Sub025] (Eterna round: R97, puzzle: Exclusion 2)	27.4	23.8	–	–	–	–
UCCUGGUCAGGAUAUUGCAGGUCGUACGCUCUGAGUCUAGGCAAGAAGGGACAUGAGGAUCACCCAUGUGGGCG [Eternabot (L1) Solution 4] (Eterna round: R97, puzzle: Exclusion 4)	406	187	–	–	–	–
UCCUUACAUGAGGAUCACCCAUGUCAGGAUAUCUCCACACUGCGCUUGCGCAGUGUAUAGAGAAGGGACAGGCU [JL ViennaUCT Aner mod 6] (puzzle: Exclusion 1)	–	–	33.4	26.5	35.8	–
UCCUUACUGGUCAGGAUAUACAUUCGCUACUCCUUGUAGAAGGGACAUGAGGAUCACCCAUGUACGUUACAUCC [alecazam54b] (Eterna round: R97, puzzle: Brourd's mod of Exclusion 4)	22.9	21.6	–	–	–	–
UCCUUACUGGUCAGGAUAUACAUUCGCUACUGGGUGUAGAAGGGACAUGAGGAUCACCCAUGUACGUUACAUCC [alecazam54e] (Eterna round: R97, puzzle: Brourd's mod of Exclusion 4)	19.3	23.8	–	–	–	–
UCGACUACAGUAGGAUAUGUAGGAUAUGUGGUUGAGGAUCACCCAACCACUUCAACGACAGAAGGACAGAAGGACUGACAACGU [pwkr exNG2 2xFMN 1xF5.3] (Eterna round: R96, puzzle: Exclusion NG 2)	16.8	16.5	–	–	–	14.8
UCGACUAGAGGAUAUACAUGAGGAUCACCCAUGUUGGUAUCACGAAUUCAACCAACUCGUAGAAGGCUGACGAC [Eternabot (L1) Solution 98] (Eterna round: R97, puzzle: Exclusion 3)	24.2	24.9	–	–	–	–
UCGAGGUCAGGAUAUACAUGAGGAUCACCCAUGUGGAAGUAAGGUAGGAGAAGAGUAGGUAGAAGGGACGAGGG [JR_Exclu3_Sub051] (puzzle: Exclusion 3)	–	–	38.2	37.9	46.3	–
UCGAGGUCAGGAUAUACAUGAGGAUCACCCAUGUGGAGAUAAGGUAGGAAAAGAGUAGGUAGAAGGGACGAGAG [JR_Exclu3_Sub048] (puzzle: Exclusion 3)	–	–	61.4	40.6	57.6	–
UCGAGGUCAGGAUAUACAUGAGGAUCACCCAUGUUGAGAGAAGGUAGGAAAAGAGUAGGUAGAAGGGACGAGAG [JR_Exclu3_Sub046] (puzzle: Exclusion 3)	–	–	–	26.1	–	–
UCGAUGUGAGGAUAUAUUUUUAUUAGUCCUUAUGUUUUAUAACUUGAGGAUCACCCAAGUAGAAGGCGCGACGU [JR_Ex2_Sub061] (Eterna round: R97, puzzle: Exclusion 2)	32.6	34.6	–	–	–	–
UCGAUGUGAGGAUAUAUUUUUAUUAGUCCUUAUGUUUUAUAACUUGAGGAUCACCCAAGUAGAAGGCGCUACGU [JR_Ex2_Sub062] (Eterna round: R97, puzzle: Exclusion 2)	25.5	40.9	–	–	–	–
UCGCAAGCCAUUCCUACUCACAUGAGGAUCACCCAUGUCCUCAGGUUCGUCGUGUCUCUCUGCAAACACUUGCAGAG [Eternabot (L2) Solution 7] (Eterna round: R97, puzzle: Sensor, turn-off variant 1)	145	762	–	–	–	–
UCGCAGGGAGGAUAUACACACAGGUGACGCAGCCCAAAAGAACAUGAGGAUCACCCAUGUAGAAGGCUCAAUAU [Eternabot (Original) Solution 2] (Eterna round: R97, puzzle: Exclusion 2)	51.5	31.2	–	–	–	–
UCGCUGCGAGGAUAUACAUGAGGAUCACCCAUGUACGGGUCCGGGUCUAAGUUGAUAAGUAGAAGGCGCAGUGA [JL Laongeedie mod 12] (puzzle: Exclusion 3)	–	–	–	114	–	–
UCGCUGCGAGGAUAUACAUGAGGAUCACCCAUGUGCGGGUCCGGGUUUUCGUCCAUUAGUAGAAGGCGCAGUGA [JL Laongeedie mod 3] (puzzle: Exclusion 3)	–	–	–	269	–	–
UCGCUGCGAGGAUAUACGUUUGCGCGCUUUCGUUUGCGCGUACAUGAGGAUCACCCAUGUAGAAGGCGCGCUGC [Apr-15 SS2-7] (puzzle: Exclusion 2)	–	–	–	13.1	–	–
UCGGCCGCCGUGAGGAUAUGCCCGCGCGCCCGCGGGCAGAAGGCACAUGAGGAUCACCCAUGUCCCGCGGCACC [salish99_bmx4_r4_125] (Eterna round: R97, puzzle: Brourd's mod of Exclusion 4)	15.1	14.1	–	–	–	–
